Measured values as given in article PMC3778555.
Like-named read-outs stand apart in the source and are kept apart here.

Legend:
Assay in all cases: EMSA
ΔN20C17-HMGA1a [1] = target: T1, ΔN20C17-HMGA1a (human, UniProt P17096 21-91)
ΔN20C17-HMGA1a [2] = target: T1, ΔN20C17-HMGA1a; remark: listed apart in the source
ΔN20C17-HMGA1a [3] = target: T1, ΔN20C17-HMGA1a; remark: listed apart in the source
ΔN20C17-HMGA1b [4] = target: T2, ΔN20C17-HMGA1b (human, UniProt P17096-2 21-80)
ΔN20C17-HMGA1a [5] = target: T1, ΔN20C17-HMGA1a; remark: listed apart in the source
ΔN20C17-HMGA1b [6] = target: T2, ΔN20C17-HMGA1b; remark: listed apart in the source
ΔN20C17-HMGA1a [7] = target: T1, ΔN20C17-HMGA1a; remark: listed apart in the source
ΔN20C17-HMGA1a [8] = target: T1, ΔN20C17-HMGA1a; remark: listed apart in the source

B1: T9A9-DNA (dsDNA)
DNA 1: GCTTTTTTTTTAAAAAAAAAGC
DNA 2: GCTTTTTTTTTAAAAAAAAAGC
**Q.** Does B1 bind (ΔN20C17-HMGA1a [1])?
**A.** binds

B2: A5-DNA (dsDNA)
DNA 1: GGCCCCGCGAAAAACCCGGCGGG
DNA 2: CCCGCCGGGTTTTTCGCGGGGCC
**Q.** Does B2 bind (ΔN20C17-HMGA1a [2])?
**A.** binds

B3: A19-DNA (dsDNA)
DNA 1: CCCAAAAAAAAAAAAAAAAAAACC
DNA 2: GGTTTTTTTTTTTTTTTTTTTGGG
**Q.** Does B3 bind (ΔN20C17-HMGA1a [3])?
**A.** binds

**Q.** Does B3 bind (ΔN20C17-HMGA1b [4])?
**A.** binds

B4: A5T5-DNA (dsDNA)
DNA 1: CGAAAAATTTTTCG
DNA 2: CGAAAAATTTTTCG
**Q.** Does B4 bind (ΔN20C17-HMGA1a [5])?
**A.** binds

**Q.** Does B4 bind (ΔN20C17-HMGA1b [6])?
**A.** binds

B5: A9T9-DNA (dsDNA)
DNA 1: CGAAAAAAAAATTTTTTTTTCG
DNA 2: CGAAAAAAAAATTTTTTTTTCG
**Q.** Does B5 bind (ΔN20C17-HMGA1a [7])?
**A.** binds

B6: A18-DNA (dsDNA)
DNA 1: CCCAAAAAAAAAAAAAAAAAACC
DNA 2: GGTTTTTTTTTTTTTTTTTTGGG
**Q.** Does B6 bind (ΔN20C17-HMGA1a [8])?
**A.** binds
